The source of these data is patent US8933202B2, “AXL antibodies” (U3 Pharma GmbH, priority 2007, dated 2015).

Experiment [1] deals with NIH3T3-AXL cl.7 fibroblasts. The experiment can be described thus: Boyden chamber/transwell migration assay. The experiment is classed as cell-based. Conditions: 10 μg/ml antibody, with or without 400 ng/ml Gas6, 7 h. The procedure: Transmigration experiments were performed in order to investigate whether the antibodies of the invention block cell migration. For this purpose, in the morning of day 1, NIH3T3-AXL cl.7 cells were seeded on 15 cm dished in normal growth medium, which in the evening was replaced by serum-reduced medium (DMEM, 0.5% FCS) in order to starve cells for 36 h. The next day, a FluoroBlock 96 well plate (Becton Dickinson #351164, 8 μm pore size) was coated with 10 μg collagen 1/ml 0.1 M acetic acid over night at 37° C. On day 3, the serum-reduced medium (DMEM, 0.5% FCS) was replaced by serum-free medium (DMEM, 0% FCS, 0.1% BSA) for another 4 h. Cells were harvested with 10 mM EDTA in PBS and pre-incubated with rat anti-AXL antibodies 4A6, 11B7 or 2A1 at a cell density of 4×10^5 cells/ml and an antibody concentration of 10 μg/ml for 45 min. 50 μl cell suspension (20,000 cells) per well were then placed in the top chamber of the FluoroBlock 96-well plate, 225 μl medium (DMEM, 0% FCS, 0.1% BSA) with or without 400 ng/ml mouse Gas6 (R&D Systems) were used per well in the bottom chamber. Cells were left to migrate for 7 h at 37° C. and stained afterwards with 4.2 μM calcein-AM (Molecular Probes #C3099) in PBS, 1 mM CaCl2, 1 mM MgCl2 for 1 h at 37° C. Using a Victor plate reader (Perkin Elmer), the fluorescence of each well was measured at a wavelength of 530 nm.

The target of experiment [2] is T1, AXL (Homo sapiens, UniProt P30530).
T1 sequence (P30530 26-894): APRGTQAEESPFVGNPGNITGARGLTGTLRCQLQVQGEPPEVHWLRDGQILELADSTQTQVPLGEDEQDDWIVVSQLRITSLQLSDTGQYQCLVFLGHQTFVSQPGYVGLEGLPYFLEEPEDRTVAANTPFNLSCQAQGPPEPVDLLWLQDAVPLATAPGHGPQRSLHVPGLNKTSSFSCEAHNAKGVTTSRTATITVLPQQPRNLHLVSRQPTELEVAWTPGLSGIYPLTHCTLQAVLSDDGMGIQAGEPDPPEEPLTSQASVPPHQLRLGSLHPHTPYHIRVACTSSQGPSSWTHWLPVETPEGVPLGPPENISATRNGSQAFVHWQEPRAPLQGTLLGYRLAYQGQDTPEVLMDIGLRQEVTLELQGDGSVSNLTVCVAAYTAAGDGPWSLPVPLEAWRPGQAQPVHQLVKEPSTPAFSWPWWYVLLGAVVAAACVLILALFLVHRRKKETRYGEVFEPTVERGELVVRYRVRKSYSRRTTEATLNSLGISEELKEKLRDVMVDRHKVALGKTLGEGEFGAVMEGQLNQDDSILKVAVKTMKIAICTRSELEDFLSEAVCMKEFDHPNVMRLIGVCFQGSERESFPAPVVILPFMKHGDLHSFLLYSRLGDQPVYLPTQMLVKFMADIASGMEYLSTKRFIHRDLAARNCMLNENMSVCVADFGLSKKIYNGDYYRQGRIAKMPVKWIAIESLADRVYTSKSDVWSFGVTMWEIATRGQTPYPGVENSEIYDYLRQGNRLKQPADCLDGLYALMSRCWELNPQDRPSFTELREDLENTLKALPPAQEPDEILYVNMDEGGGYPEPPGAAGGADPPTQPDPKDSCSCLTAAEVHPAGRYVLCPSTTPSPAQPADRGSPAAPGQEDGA
The experiment can be described thus: Axl phosphorylation ELISA, rat versus chimeric antibody. Type of experiment: cell-based. The arrangement: endogenous in cells; host or cells: CaSki cervical cancer cells. Here is the method:
In order to investigate whether the rat anti-Axl antibodies of the invention and the corresponding chimeric anti-Axl antibodies of the invention were able to inhibit ligand Gas6-mediated Axl activation in vitro to similar extent, ELISA experiments on CaSki cervical cancer cells were performed. Gas6-mediated Axl activation was thereby detected by increased receptor tyrosine phosphorylation. In brief, on day 1, 3×10^4 cells per well were seeded in normal growth medium in flat-bottom 96 well plates. The next day, growth medium was replaced by serum-free medium to starve cells over night for 24 h. Also over night, black Maxi-Sorp 96 well plates (Nunc) were coated with mouse anti-phospho-tyrosine antibody 4G10 at 2 μg/ml PBS and 4° C. On day 3, the 4G10 antibody solution was removed and Maxi-Sorp wells were blocked with PBS, 0.5% BSA for at lest 4 h at room temperature. In parallel, cells were pre-incubated with 50 ng/ml, 100 ng/ml, 300 ng/ml, 750 ng/ml, 1 μg/ml, and 10 μg/ml of rat anti-Axl antibody 11B7 or chimeric anti-Axl antibody ch11B7 for 1 h at 37° C. and subsequently treated with or without 400 ng/ml Gas6 (R&D Systems) for 10 min at 37° C. […] Using a Victor plate reader (Perkin Elmer), the fluorescence of each well was collected at an excitation wavelength of 430 nm and an emission wavelength of 580 nm.

B1: 11B7: antagonistic rat anti-AXL monoclonal antibody, rat IgG1 (antibody, V domains shown)
VL: DIQMTQAPSSLPASLGDRVTITCRASQDIGNYLRWFQQKPGKSPRLMISGATNLAAGVPSRFSGSRSGSDYSLTISSLESEDMADYYCLQSKESPWTFGGGTKLELK
VH: EVQLQESGPGLVKPSQSLSLTCSVTGYSITSNYWGWIRKFPGDKMEWMGYITYSGSTSYNPSLKSRISITRDTSKNQFFLQLNSVTSEDTATYYCAITTFYYWGQGVMVTVSS
Regarding B1, in experiment [1], the directed cell migration entry is “reduced both basal and Gas6-induced migration”. In experiment [2] (50 ng/ml to 10 μg/ml antibody, 400 ng/ml Gas6, CaSki cervical cancer cells), the “ligand-induced Axl activation (relative Axl phosphorylation), concentration-dependent” value is listed as “able to block ligand-induced activation of the receptor tyrosine kinase Axl to similar extent”. Further, the “ligand-induced Axl activation in melanoma cell line C-8161” value in experiment [2] (same experimental settings, C-8161) is “Comparable effects”.
